{"source": "patent US20260139035A1", "about": "(NATIONAL UNIVERSITY CORPORATION KUMAMOTO UNIVERSITY, published 2026)", "experiment_in_all_cases": "cell-based or functional assay", "key": {"[1]": {"target": "spike protein of SARS-CoV-2 Omicron BA.4/5 (SARS-CoV-2)"}, "[2]": {"target": "spike protein of SARS-CoV-2 Omicron BA.1 (SARS-CoV-2)"}, "[3]": {"target": "spike protein of SARS-CoV-2 Beta strain (B.1.351) (SARS-CoV-2)"}, "[4]": {"target": "spike protein of SARS-CoV-2 Omicron BA.1.1 (SARS-CoV-2)"}, "[5]": {"target": "spike protein of SARS-CoV-2 Mu strain (B.1.621) (SARS-CoV-2)"}, "[6]": {"target": "spike protein of SARS-CoV-2 Omicron BA.3 (SARS-CoV-2)"}, "[7]": {"target": "spike protein of SARS-CoV-2 Omicron BA.2 (SARS-CoV-2)"}, "[8]": {"target": "spike protein of SARS-CoV-2 Omicron BA.2.12.1 (SARS-CoV-2)"}, "[9]": {"target": "spike protein of SARS-CoV-2 Kappa strain (B.1.617.1) (SARS-CoV-2)"}, "[10]": {"target": "spike protein of SARS-CoV-2 Alpha strain (B.1.1.7) (SARS-CoV-2)"}, "[11]": {"target": "spike protein of SARS-CoV-2 prototype (614G) (SARS-CoV-2, UniProt P0DTC2 14-1273)"}, "[12]": {"target": "spike protein of SARS-CoV-2 Lambda strain (C.37) (SARS-CoV-2)"}, "[13]": {"target": "spike protein of SARS-CoV-2 Gamma strain (P.1) (SARS-CoV-2)"}, "[14]": {"target": "spike protein of SARS-CoV-2 Delta strain (B.1.617.2) (SARS-CoV-2)"}}, "data": [{"binder": "4-66 antibody (antibody, V domains shown) VH: EVQLVESGGGLVQPGGSLRLSCAASGIIVSRNYMTWVRQAPGKGLEWVSVIYSGGTTYYADSVKGRFTTSRDDSKNTLYLQMNSLRGDDTAVYYCARDPPHRRGSYWGQGTLVTVSS VL: DILMTQSPSSLSASVGDRVTITCQASQDINKYLNWYQQKPGKAPKLLIYDASNLETGVPSRFSGSGSGTDFSFTISSLQPEDVATYYCQQSDNLPPTFGQGTNVEIK", "values": [{"measurement": "IC50, pseudovirus neutralization", "setting": "[1]", "result": "< 0.21", "unit": "µg/mL"}, {"measurement": "IC50, pseudovirus neutralization", "setting": "[2]", "result": "< 0.21", "unit": "µg/mL"}, {"measurement": "IC50, pseudovirus neutralization", "setting": "[3]", "result": "< 0.21", "unit": "µg/mL"}, {"measurement": "IC50, pseudovirus neutralization", "setting": "[4]", "result": "< 0.21", "unit": "µg/mL"}, {"measurement": "IC50, pseudovirus neutralization", "setting": "[5]", "result": "< 0.21", "unit": "µg/mL"}, {"measurement": "IC50, pseudovirus neutralization", "setting": "[6]", "result": "< 0.21", "unit": "µg/mL"}, {"measurement": "IC50, pseudovirus neutralization", "setting": "[7]", "result": "< 0.21", "unit": "µg/mL"}, {"measurement": "IC50, pseudovirus neutralization", "setting": "[8]", "result": "< 0.21", "unit": "µg/mL"}, {"measurement": "IC50, pseudovirus neutralization", "setting": "[9]", "result": "< 0.21", "unit": "µg/mL"}, {"measurement": "IC50, pseudovirus neutralization", "setting": "[10]", "result": "< 0.21", "unit": "µg/mL"}, {"measurement": "IC50, pseudovirus neutralization", "setting": "[11]", "result": "< 0.21", "unit": "µg/mL"}, {"measurement": "IC50, pseudovirus neutralization", "setting": "[12]", "result": "< 0.21", "unit": "µg/mL"}, {"measurement": "IC50, pseudovirus neutralization", "setting": "[13]", "result": "< 0.21", "unit": "µg/mL"}, {"measurement": "IC50, pseudovirus neutralization", "setting": "[14]", "result": "< 0.21", "unit": "µg/mL"}]}, {"binder": "1-58 antibody (antibody, V domains shown) VH: QVQLVQSGAEVKKPGASVRVSCKASGYSFTASYMHWVRQAPGQGLEWMAIINPGDDNTSYAQKFQGRVTLTRDTSTTTVYMELRSLRSEDTAVYYCTRSTRDYVWGNYRYTPGYYLDYWGQGTLVTVSS VL: DIRMTQSPSSLSASVGDRVTITCRASQTISNYLNWYQQKPGKAPKLLIYAASSLQSGVPSRFSGSGSGTDFTLTISSLQPEDFATYYCQQGYITPITFGQGTRLEIK", "values": [{"measurement": "IC50, pseudovirus neutralization", "setting": "[1]", "result": "< 0.087", "unit": "µg/mL"}, {"measurement": "IC50, pseudovirus neutralization", "setting": "[2]", "result": "< 0.087", "unit": "µg/mL"}, {"measurement": "IC50, pseudovirus neutralization", "setting": "[3]", "result": "< 0.087", "unit": "µg/mL"}, {"measurement": "IC50, pseudovirus neutralization", "setting": "[4]", "result": "< 0.087", "unit": "µg/mL"}, {"measurement": "IC50, pseudovirus neutralization", "setting": "[5]", "result": "< 0.087", "unit": "µg/mL"}, {"measurement": "IC50, pseudovirus neutralization", "setting": "[6]", "result": "< 0.087", "unit": "µg/mL"}, {"measurement": "IC50, pseudovirus neutralization", "setting": "[7]", "result": "< 0.087", "unit": "µg/mL"}, {"measurement": "IC50, pseudovirus neutralization", "setting": "[8]", "result": "< 0.087", "unit": "µg/mL"}, {"measurement": "IC50, pseudovirus neutralization", "setting": "[9]", "result": "< 0.087", "unit": "µg/mL"}, {"measurement": "IC50, pseudovirus neutralization", "setting": "[10]", "result": "< 0.087", "unit": "µg/mL"}, {"measurement": "IC50, pseudovirus neutralization", "setting": "[11]", "result": "< 0.087", "unit": "µg/mL"}, {"measurement": "IC50, pseudovirus neutralization", "setting": "[12]", "result": "< 0.087", "unit": "µg/mL"}, {"measurement": "IC50, pseudovirus neutralization", "setting": "[13]", "result": "< 0.087", "unit": "µg/mL"}, {"measurement": "IC50, pseudovirus neutralization", "setting": "[14]", "result": "< 0.087", "unit": "µg/mL"}]}, {"binder": "1-44 antibody (antibody, V domains shown) VH: EVQLVESGGGVVQPGSSLRLSCAASGFTFRSHAMHWVRQAPGKGLEGVAVIWYDGSNKYYADSVKGRFTISRDNSKNTLYLQMNSLRAEDTAVYYCAREGIAVPGNGADAFDIWGQGTMVTVSS VL: DIQMTQSPSSLSASVGDRVTITCRASQSIGNFLNWYQQKPGKAPKLLIYAASSLQSGVPSRFSGSGSGTDFTLTISSLQPEDFATYYCQQTYSTPYTFGQGTKLEIK", "values": [{"measurement": "IC50, pseudovirus neutralization", "setting": "[2]", "result": "< 0.47", "unit": "µg/mL"}, {"measurement": "IC50, pseudovirus neutralization", "setting": "[3]", "result": "< 0.47", "unit": "µg/mL"}, {"measurement": "IC50, pseudovirus neutralization", "setting": "[4]", "result": "< 0.47", "unit": "µg/mL"}, {"measurement": "IC50, pseudovirus neutralization", "setting": "[6]", "result": "< 0.47", "unit": "µg/mL"}, {"measurement": "IC50, pseudovirus neutralization", "setting": "[7]", "result": "< 0.47", "unit": "µg/mL"}, {"measurement": "IC50, pseudovirus neutralization", "setting": "[8]", "result": "< 0.47", "unit": "µg/mL"}, {"measurement": "IC50, pseudovirus neutralization", "setting": "[9]", "result": "< 0.47", "unit": "µg/mL"}, {"measurement": "IC50, pseudovirus neutralization", "setting": "[10]", "result": "< 0.47", "unit": "µg/mL"}, {"measurement": "IC50, pseudovirus neutralization", "setting": "[11]", "result": "< 0.47", "unit": "µg/mL"}, {"measurement": "IC50, pseudovirus neutralization", "setting": "[12]", "result": "< 0.47", "unit": "µg/mL"}, {"measurement": "IC50, pseudovirus neutralization", "setting": "[13]", "result": "< 0.47", "unit": "µg/mL"}]}]}
